Experimental data taken from patent US20170267783A1 (published 2017).

B1: TR01H040-E2702GsKsc/H0610-E2704sEpsc/L0208-k0 (bispecific antibody, human IgG4 S228P, kappa, N297A)
heavy 1: QVQLVESGGGLVQPGRSLRLSCAASGFTFSNAWMHWVRQAPGKGLEWVAQIKDKSQNYATYYAESVKGRFTISRADSKNSIYLQMNSLKTEDTAVYYCRYVHYSASYGVDAWGQGTTVTVSSASTKGPSVFPLAPCSRSTSESTAALGCLVKDYFPEPVTVSWNSGALTSGVHTFPAVLQSSGLYSLSSVVTVPSSSLGTKTYTCNVDHKPSNTKVDKRVESKYGPPCPPCPAPEFRGGPKVFLFPPKPKDTLMISRTPEVTCVVVDVSQEDPEVQFNWYVDGVEVHNAKTKPREEQFASTYRVVSVLTVLHQDWLNGKEYKCKVSNKGLPSSIEKTISKAKGQPREPQVYTLPPSQKEMTKNQVSLTCLVKGFYPSDIAVEWESNGQPENNYKTTPPVLDSDGSFFLYSKLTVDKSRWQEGNVFSCSVMHEALHNRYTQKSLSLSP
heavy 2: QVQLVQSGAEVKKPGASVKVSCKASGYTFTDYEMHWIRQPPGQGLEWIGAIDGKTPDTAYSQKFKGRVTLTADKSTSTAYMELSSLTSEDTAVYYCTRFYSYTYWGQGTLVTVSSASTKGPSVFPLAPCSRSTSESTAALGCLVKDYFPEPVTVSWNSGALTSGVHTFPAVLQSSGLYSLSSVVTVPSSSLGTQTYTCNVDHKPSNTKVDKRVESKYGPPCPPCPAPEFRGGPKVFLFPPKPKDTLMISRTPEVTCVVVDVSQEDPEVQFNWYVDGVEVHNAKTKPREEQFASTYRVVSVLTVLHQDWLNGKEYKCKVSNKGLPSSIEKTISKAKGQPREPQVYTLPPSQEEMTKNQVSLTCLVKGFYPSDIAVEWESNGQPENNYKTTPPVLDSDGSFFLYSKLTVDKSRWQEGNVFSCSVMHEALHNHYTQESLSLSP
light: DIVMTQSPLSLPVTPGEPASISCRSSQSPVHSNRNTYLHWYQQKPGQAPRLLIYKVSNRFWGVPDRFSGSGSGTDFTLKISRVEAEDVGVYYCYQGTQVPYTFGQGTKLEIKRTVAAPSVFIFPPSDEQLKSGTASVVCLLNNFYPREAKVQWKVDNALQSGNSQESVTEQDSKDSTYSLSSTLTLSKADYEKHKVYACEVTHQGLSSPVTKSFNRGEC
B2: TR01H040-E2702GsKsc/H0610-E2704sEpsc/L0211-k0 (bispecific antibody, human IgG4 S228P, kappa, N297A)
heavy 1: QVQLVESGGGLVQPGRSLRLSCAASGFTFSNAWMHWVRQAPGKGLEWVAQIKDKSQNYATYYAESVKGRFTISRADSKNSIYLQMNSLKTEDTAVYYCRYVHYSASYGVDAWGQGTTVTVSSASTKGPSVFPLAPCSRSTSESTAALGCLVKDYFPEPVTVSWNSGALTSGVHTFPAVLQSSGLYSLSSVVTVPSSSLGTKTYTCNVDHKPSNTKVDKRVESKYGPPCPPCPAPEFRGGPKVFLFPPKPKDTLMISRTPEVTCVVVDVSQEDPEVQFNWYVDGVEVHNAKTKPREEQFASTYRVVSVLTVLHQDWLNGKEYKCKVSNKGLPSSIEKTISKAKGQPREPQVYTLPPSQKEMTKNQVSLTCLVKGFYPSDIAVEWESNGQPENNYKTTPPVLDSDGSFFLYSKLTVDKSRWQEGNVFSCSVMHEALHNRYTQKSLSLSP
heavy 2: QVQLVQSGAEVKKPGASVKVSCKASGYTFTDYEMHWIRQPPGQGLEWIGAIDGKTPDTAYSQKFKGRVTLTADKSTSTAYMELSSLTSEDTAVYYCTRFYSYTYWGQGTLVTVSSASTKGPSVFPLAPCSRSTSESTAALGCLVKDYFPEPVTVSWNSGALTSGVHTFPAVLQSSGLYSLSSVVTVPSSSLGTQTYTCNVDHKPSNTKVDKRVESKYGPPCPPCPAPEFRGGPKVFLFPPKPKDTLMISRTPEVTCVVVDVSQEDPEVQFNWYVDGVEVHNAKTKPREEQFASTYRVVSVLTVLHQDWLNGKEYKCKVSNKGLPSSIEKTISKAKGQPREPQVYTLPPSQEEMTKNQVSLTCLVKGFYPSDIAVEWESNGQPENNYKTTPPVLDSDGSFFLYSKLTVDKSRWQEGNVFSCSVMHEALHNHYTQESLSLSP
light: DIVMTQSPLSLPVTPGEPASISCRSSQPPVHSNRNTYLHWYQQKPGQAPRLLIYKVSNRFSGVPDRFSGSGSGTDFTLKISRVEAEDVGVYYCYQGTQVPYTFGQGTKLEIKRTVAAPSVFIFPPSDEQLKSGTASVVCLLNNFYPREAKVQWKVDNALQSGNSQESVTEQDSKDSTYSLSSTLTLSKADYEKHKVYACEVTHQGLSSPVTKSFNRGEC
B3: TR01H040-E2702GsKsc/H0610-E2704sEpsc/L0206-k0 (bispecific antibody, human IgG4 S228P, kappa, N297A)
heavy 1: QVQLVESGGGLVQPGRSLRLSCAASGFTFSNAWMHWVRQAPGKGLEWVAQIKDKSQNYATYYAESVKGRFTISRADSKNSIYLQMNSLKTEDTAVYYCRYVHYSASYGVDAWGQGTTVTVSSASTKGPSVFPLAPCSRSTSESTAALGCLVKDYFPEPVTVSWNSGALTSGVHTFPAVLQSSGLYSLSSVVTVPSSSLGTKTYTCNVDHKPSNTKVDKRVESKYGPPCPPCPAPEFRGGPKVFLFPPKPKDTLMISRTPEVTCVVVDVSQEDPEVQFNWYVDGVEVHNAKTKPREEQFASTYRVVSVLTVLHQDWLNGKEYKCKVSNKGLPSSIEKTISKAKGQPREPQVYTLPPSQKEMTKNQVSLTCLVKGFYPSDIAVEWESNGQPENNYKTTPPVLDSDGSFFLYSKLTVDKSRWQEGNVFSCSVMHEALHNRYTQKSLSLSP
heavy 2: QVQLVQSGAEVKKPGASVKVSCKASGYTFTDYEMHWIRQPPGQGLEWIGAIDGKTPDTAYSQKFKGRVTLTADKSTSTAYMELSSLTSEDTAVYYCTRFYSYTYWGQGTLVTVSSASTKGPSVFPLAPCSRSTSESTAALGCLVKDYFPEPVTVSWNSGALTSGVHTFPAVLQSSGLYSLSSVVTVPSSSLGTQTYTCNVDHKPSNTKVDKRVESKYGPPCPPCPAPEFRGGPKVFLFPPKPKDTLMISRTPEVTCVVVDVSQEDPEVQFNWYVDGVEVHNAKTKPREEQFASTYRVVSVLTVLHQDWLNGKEYKCKVSNKGLPSSIEKTISKAKGQPREPQVYTLPPSQEEMTKNQVSLTCLVKGFYPSDIAVEWESNGQPENNYKTTPPVLDSDGSFFLYSKLTVDKSRWQEGNVFSCSVMHEALHNHYTQESLSLSP
light: DIVMTQSPLSLPVTPGEPASISCRSSQSPVHSNRNTYLHWYQQKPGQAPRLLIYKVSNRFSGVPDRFSGSGSGTDFTLKISRVEAEDVGVYYCYQGTQVPYTFGQGTKLEIKRTVAAPSVFIFPPSDEQLKSGTASVVCLLNNFYPREAKVQWKVDNALQSGNSQESVTEQDSKDSTYSLSSTLTLSKADYEKHKVYACEVTHQGLSSPVTKSFNRGEC
B4: TR01H040-E2702GsKsc/H0610-E2704sEpsc/L0209-k0 (bispecific antibody, human IgG4 S228P, kappa, N297A)
heavy 1: QVQLVESGGGLVQPGRSLRLSCAASGFTFSNAWMHWVRQAPGKGLEWVAQIKDKSQNYATYYAESVKGRFTISRADSKNSIYLQMNSLKTEDTAVYYCRYVHYSASYGVDAWGQGTTVTVSSASTKGPSVFPLAPCSRSTSESTAALGCLVKDYFPEPVTVSWNSGALTSGVHTFPAVLQSSGLYSLSSVVTVPSSSLGTKTYTCNVDHKPSNTKVDKRVESKYGPPCPPCPAPEFRGGPKVFLFPPKPKDTLMISRTPEVTCVVVDVSQEDPEVQFNWYVDGVEVHNAKTKPREEQFASTYRVVSVLTVLHQDWLNGKEYKCKVSNKGLPSSIEKTISKAKGQPREPQVYTLPPSQKEMTKNQVSLTCLVKGFYPSDIAVEWESNGQPENNYKTTPPVLDSDGSFFLYSKLTVDKSRWQEGNVFSCSVMHEALHNRYTQKSLSLSP
heavy 2: QVQLVQSGAEVKKPGASVKVSCKASGYTFTDYEMHWIRQPPGQGLEWIGAIDGKTPDTAYSQKFKGRVTLTADKSTSTAYMELSSLTSEDTAVYYCTRFYSYTYWGQGTLVTVSSASTKGPSVFPLAPCSRSTSESTAALGCLVKDYFPEPVTVSWNSGALTSGVHTFPAVLQSSGLYSLSSVVTVPSSSLGTQTYTCNVDHKPSNTKVDKRVESKYGPPCPPCPAPEFRGGPKVFLFPPKPKDTLMISRTPEVTCVVVDVSQEDPEVQFNWYVDGVEVHNAKTKPREEQFASTYRVVSVLTVLHQDWLNGKEYKCKVSNKGLPSSIEKTISKAKGQPREPQVYTLPPSQEEMTKNQVSLTCLVKGFYPSDIAVEWESNGQPENNYKTTPPVLDSDGSFFLYSKLTVDKSRWQEGNVFSCSVMHEALHNHYTQESLSLSP
light: DIVMTQSPLSLPVTPGEPASISCRSSQSPVHSNRNTYIHWYQQKPGQAPRLLIYKVSNRFSGVPDRFSGSGSGTDFTLKISRVEAEDVGVYYCYQGTQVPYTFGQGTKLEIKRTVAAPSVFIFPPSDEQLKSGTASVVCLLNNFYPREAKVQWKVDNALQSGNSQESVTEQDSKDSTYSLSSTLTLSKADYEKHKVYACEVTHQGLSSPVTKSFNRGEC
B5: TR01H040-E2702GsKsc/H0610-E2704sEpsc/L0204-k0 (bispecific antibody, human IgG4 S228P, kappa, N297A)
heavy 1: QVQLVESGGGLVQPGRSLRLSCAASGFTFSNAWMHWVRQAPGKGLEWVAQIKDKSQNYATYYAESVKGRFTISRADSKNSIYLQMNSLKTEDTAVYYCRYVHYSASYGVDAWGQGTTVTVSSASTKGPSVFPLAPCSRSTSESTAALGCLVKDYFPEPVTVSWNSGALTSGVHTFPAVLQSSGLYSLSSVVTVPSSSLGTKTYTCNVDHKPSNTKVDKRVESKYGPPCPPCPAPEFRGGPKVFLFPPKPKDTLMISRTPEVTCVVVDVSQEDPEVQFNWYVDGVEVHNAKTKPREEQFASTYRVVSVLTVLHQDWLNGKEYKCKVSNKGLPSSIEKTISKAKGQPREPQVYTLPPSQKEMTKNQVSLTCLVKGFYPSDIAVEWESNGQPENNYKTTPPVLDSDGSFFLYSKLTVDKSRWQEGNVFSCSVMHEALHNRYTQKSLSLSP
heavy 2: QVQLVQSGAEVKKPGASVKVSCKASGYTFTDYEMHWIRQPPGQGLEWIGAIDGKTPDTAYSQKFKGRVTLTADKSTSTAYMELSSLTSEDTAVYYCTRFYSYTYWGQGTLVTVSSASTKGPSVFPLAPCSRSTSESTAALGCLVKDYFPEPVTVSWNSGALTSGVHTFPAVLQSSGLYSLSSVVTVPSSSLGTQTYTCNVDHKPSNTKVDKRVESKYGPPCPPCPAPEFRGGPKVFLFPPKPKDTLMISRTPEVTCVVVDVSQEDPEVQFNWYVDGVEVHNAKTKPREEQFASTYRVVSVLTVLHQDWLNGKEYKCKVSNKGLPSSIEKTISKAKGQPREPQVYTLPPSQEEMTKNQVSLTCLVKGFYPSDIAVEWESNGQPENNYKTTPPVLDSDGSFFLYSKLTVDKSRWQEGNVFSCSVMHEALHNHYTQESLSLSP
light: DIVMTQSPLSLPVTPGEPASISCRSSQSPVHSNRNTYLHWYQQKPGQAPRLLIYKVSNRFRGVPDRFSGSGSGTDFTLKISRVEAEDVGVYYCGQGTQVPYTFGQGTKLEIKRTVAAPSVFIFPPSDEQLKSGTASVVCLLNNFYPREAKVQWKVDNALQSGNSQESVTEQDSKDSTYSLSSTLTLSKADYEKHKVYACEVTHQGLSSPVTKSFNRGEC

Each binder was assayed against extracellular matrix (ECM; BD Matrigel) (assay: ECL on Matrigel-coated plate, signal divided by that of MRAH-G1d/MRAL-k0).
B1 was tested, and the ECM binding ratio (standard = 1) (ratio to standard antibody) was 50.4.
In the case of B2, the ECM binding ratio (standard = 1) (ratio to standard antibody) is reported as 15.5.
Work on B3 yielded an ECM binding ratio (standard = 1) (ratio to standard antibody) of 15.4.
For B4, the ECM binding ratio (standard = 1) (ratio to standard antibody) was 7.4.
Work on B5 yielded an ECM binding ratio (standard = 1) (ratio to standard antibody) of 4.4.
